For one molecule, EC50 results are on record in patent US20090068173A1 (LABORATOIRES SERONO S A, published 2009).

The target of the experiment is T1, CCL3/MIP-1 alpha (UniProt P10147 24-92).
T1 construct: also called MIP-1α; 125I-CCL3/MIP-1 alpha
T1 sequence (looked up): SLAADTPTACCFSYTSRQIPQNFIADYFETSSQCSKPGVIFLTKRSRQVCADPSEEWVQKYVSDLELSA
Put plainly: SPA competition: ChBP-59-HIS (insect cells) titrated against radiolabeled CCL3/MIP-1 alpha and bead-immobilized CCR5.

B1: ChBP-59-HIS (recombinant histidine-tagged ChBP-59, mature form) (other)
chain: EDDEDYGDLGGCPFLVAENKTGYPTIVACKQDCNGTTETAPNGTRCFSIGDEGLRRMTANLPYDCPLGQCSNGDCIPKETYEVCYRRNWRDKKNHHHHHH
The term EC50 denotes the concentration giving half of the maximal effect. High values mean a need for much substance, low ones an effect from little substance. Turning to B1, the EC50 was found to be 0.012 nM.
